Measurements from the supplement of paper PMC11196671.
± gives the standard deviation of the averaged measurements.

Experiment: BHET released, HPLC; higher = more BHET released; extreme values may be limits of the assay
Conditions: 24 h
Method: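 Purified PET hydrolases, 2.5 ug enzyme on 3.5 mg amorphous PET film (aFilm) or crystalline PET powder (cryPow) in 0.5 mL of 50 mM buffer (NaCitrate pH 4.5/5.5, NaPhosphate 6.5/7.5, glycine 8.5/9.5) at 60 or 70 C with shaking for 24 h. Total aromatic product by UV-Vis (260/280 nm, blank-subtracted, normalised per mg enzyme) and individual TPA, MHET, BHET concentrations by UHPLC-DAD at 240 nm; duplicate reactions.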

[1] = PET substrate: aFilm, 60 °C, pH 4.5
[2] = PET substrate: aFilm, 60 °C, pH 5.5
[3] = PET substrate: aFilm, 60 °C, pH 6.5
[4] = PET substrate: aFilm, 60 °C, pH 7.5
[5] = PET substrate: aFilm, 60 °C, pH 8.5
[6] = PET substrate: aFilm, 60 °C, pH 9.5
[7] = PET substrate: aFilm, 70 °C, pH 4.5
[8] = PET substrate: aFilm, 70 °C, pH 5.5
[9] = PET substrate: aFilm, 70 °C, pH 6.5
[10] = PET substrate: aFilm, 70 °C, pH 7.5
[11] = PET substrate: aFilm, 70 °C, pH 8.5
[12] = PET substrate: aFilm, 70 °C, pH 9.5
[13] = PET substrate: cryPow, 60 °C, pH 4.5
[14] = PET substrate: cryPow, 60 °C, pH 5.5
[15] = PET substrate: cryPow, 60 °C, pH 6.5
[16] = PET substrate: cryPow, 60 °C, pH 7.5
[17] = PET substrate: cryPow, 60 °C, pH 8.5
[18] = PET substrate: cryPow, 60 °C, pH 9.5
[19] = PET substrate: cryPow, 70 °C, pH 4.5
[20] = PET substrate: cryPow, 70 °C, pH 5.5
[21] = PET substrate: cryPow, 70 °C, pH 6.5
[22] = PET substrate: cryPow, 70 °C, pH 7.5
[23] = PET substrate: cryPow, 70 °C, pH 8.5
[24] = PET substrate: cryPow, 70 °C, pH 9.5

Row | Sequence | BHET released [1] [mM] | BHET released [2] [mM] | BHET released [3] [mM] | BHET released [4] [mM] | BHET released [5] [mM] | BHET released [6] [mM] | BHET released [7] [mM] | BHET released [8] [mM] | BHET released [9] [mM] | BHET released [10] [mM] | BHET released [11] [mM] | BHET released [12] [mM] | BHET released [13] [mM] | BHET released [14] [mM] | BHET released [15] [mM] | BHET released [16] [mM] | BHET released [17] [mM] | BHET released [18] [mM] | BHET released [19] [mM] | BHET released [20] [mM] | BHET released [21] [mM] | BHET released [22] [mM] | BHET released [23] [mM] | BHET released [24] [mM]
1 | QTNPYARGPNPTAASLEASAGPFTVRSFTVSRPSGYGAGTVYYPTNAGGTVGAIAIVPGYTARQSSIKWWGPRLASHGFVVITIDTNSTFDYPSSRSSQQMAALRQVASLNGDSSSPIYGKVDTARMGVMGHSMGGGASLRSAANNPSLKAAIPQAPWDSQTNFSSVTVPTLIFACENDSIAPVNSHALPIYDSMSRNAKQFLEINGGSHSCANSGNSNQALIGKKGVAWMKRFMDNDTRYSTFACENPNSTAVSDFRTANCS [DuraPETase] | 0 | 0 | 0 | 0.0050186 ± 1.4e-07 | 0 | 0 | 0 | 0 | 0 | 0 | 0 | 0 | 0 | 0 | 0 | 0.00475 ± 0.00038 | 0 | 0 | 0 | 0 | 0 | 0 | 0 | 0
2 | SNPYQRGPNPTRSALTADGPFSVATYTVSRLSVSGFGGGVIYYPTGTSLTFGGIAMSPGYTADASSLAWLGRRLASHGFVVLVINTNSRFDGPDSRASQLSAALNYLRTSDPSAVRARLDANRLAVAGHSMGGGATLRIAEQNPSLKAAIPLTPWHTQKTFNTSVPVLIVGAEADTVAPVSQHAIPFYQNLPSTTPKVYVELCNASHIAPNSNNAAISVYTISWMKLWVDNDTRYRQFLCNVNDPALCDFRTNNRHCQ [LCC-ICCG DAQI] | 0 | 0.0132 ± 0.0094 | 0 | 0.0548 ± 0.011 | 0.00252 ± 0.0036 | 0.0577 ± 0.0065 | 0 | 0.0149 ± 0.0015 | 0.00777 ± 0.011 | 0.143 ± 0.0074 | 0 | 0 | 0 | 0.00665 ± 0.0012 | 0 | 0 | 0 | 0 | 0 | 0 | 0.00289 ± 0.0041 | 0 | 0 | 0
3 | SNPYQRGPNPTRSALTADGPFSVATYTVSRLSVSGFGGGVIYYPTGTSLTFGGIAMSPGYTADASSLAWLGRRLASHGFVVLVINTNSRFDGPDSRASQLSAALNYLRTSSPSAVRARLDANRLAVAGHSMGGGGTLRIAEQNPSLKAAVPLTPWHTDKTFNTSVPVLIVGAEADTVAPVSQHAIPFYQNLPSTTPKVYVELCNASHIAPNSNNAAISVYTISWMKLWVDNDTRYRQFLCNVNDPALCDFRTNNRHCQ [LCC-ICCG] | 0 | 0.00902 ± 0.0075 | 0.0136 ± 0.016 | 0.0155 ± 0.031 | 0 | 0.039 ± 0.049 | 0 | 0.00749 ± 0.0053 | 0 | 0.0808 ± 0.021 | 0 | 0 | 0 | 0.00462 ± 0.0039 | 0 | 0 | 0 | 0 | 0 | 0 | 0.0013 ± 0.0026 | 0 | 0 | 0
4 | SNPYQRGPNPTRSALTADGPFSVATYTVSRLSVSGFGGGVIYYPTGTSLTFGGIAMSPGYTADASSLAWLGRRLASHGFVVLVINTNSRFDGPDSRASQLSAALNYLRTSSPSAVRARLDANRLAVAGHSMGGGGTLRIAEQNPSLKAAVPLTPWHTDKTFNTSVPVLIVGAEADTVAPVSQYAIPFYQNLPSTTPKVYVELCNASHIAPNSDNAAISVYTISWMKLWVDNDTRYRQFLCNVNDPALCDFRTNNRHCQ [LCC-A2] | 0 | 0 | 0 | 0 | 0 | 0.0275 ± 0.039 | 0 | 0.00399 ± 0.0056 | 0 | 0.0146 ± 0.021 | 0 | 0 | 0.0062 ± 0.0088 | 0 | 0 | 0 | 0 | 0 | 0 | 0 | 0 | 0 | 0 | 0
5 | SNPYQRGPNPTRSALTADGPFSVRTYTISRLSVSGFGGGVIYYPTGTSLTFGGIAMSPGYTADASSLAWLGRRLASHGFVVLVINTNSRFDGPDSRASQLSAALNYLRTSSPSAVRARLDANRLAVAGHSMGGGGTLRIAEQNPSLKAAVPLTPWHTDKTFNTSVPVLIVGAEADTVAPVSQHAIPFYQNLPSTTPKVYVELCNASHIAPNSPNAAISVYTISWMKLWVDNDTRYRQFLCNVNDPALCDFRTNNRHCQ [LCC-ICCG RIP] | 0.00297 ± 0.0042 | 0.00225 ± 0.0032 | 0 | 0.0189 ± 0.027 | 0.00205 ± 0.0029 | 0.0202 ± 0.029 | 0 | 0.00382 ± 0.0054 | 0 | 0.0465 ± 0.015 | 0 | 0 | 0.00464 ± 0.0066 | 0 | 0 | 0 | 0 | 0 | 0 | 0.00217 ± 0.0031 | 0 | 0 | 0 | 0
6 | SNPYQRGPNPTRSALTATGPFSVATYTVSRLLVSGFGGGVIYYPTGTSLTFGGIAMSPGYTADASSLAWLGRRLASHGFVVLVINTNSRFDGPDSRARQLSAALNYLRTSSPSAVRARLDANRLAVAGHSMGGGGTLRIAEQNPSLKAAVPLTPWHPDKTFNTSVPVLIVGAQADTVAPVSQHAIPFYQNLPSTTPKVYVELCNASHIAPNSPNAAISVYTISWMKLWVDNDTRYRQFLCNVNDPALCDFRTNNRHCQ [LCC-ICCG I6M] | 0 | 0.00212 ± 0.003 | 0 | 0.0371 ± 0.052 | 0.00219 ± 0.0031 | 0 | 0 | 0.00615 ± 0.00077 | 0 | 0 | 0 | 0 | 0.00411 ± 0.0058 | 0 | 0 | 0 | 0 | 0 | 0 | 0 | 0 | 0 | 0 | 0
